Here are results for eight molecules from article PMC3642088, “Phosphorylation of CDK9 at Ser175 Enhances HIV Transcription and Is a Marker of Activated P-TEFb in CD4^+ T Lymphocytes” (PLoS Pathogens, 2013).

For test [1], the target named is BRD4 (UniProt O60885). In words: anti-FLAG co-IP, Western blot. The following applies: reference: wild type. In general terms: Immunoblotting shows a protein as a band on a membrane.
For test [2], the target named is Cyclin T1 (CycT1, hCycT1) (UniProt O60563). The experiment in a line: anti-FLAG co-IP, Western blot. To be noted: reference: wild type.
Test [3] addresses FLAG-CDK9 S175A (human) (UniProt P50750). The experiment in a line: co-IP; anti-FLAG IP of FLAG-CDK9 wildtype or mutants from latently infected Jurkat T-cells induced for 16 hr with TNF-α to express Tat, Western blot for BRD4, Tat and CycT1; levels normalised to total CDK9, three experiments.
Test [4] deals with FLAG-CDK9 S175D (human) (UniProt P50750). Described as above.
Test [5] has the same target.
Test [6] concerns the target Tat. The experiment in a line: anti-FLAG co-IP, Western blot. To be noted: reference: wild type; sites S175.
Test [7] concerns the target FLAG-HEXIM1 (UniProt O94992). In words: co-IP; anti-FLAG IP of FLAG-HEXIM1 from whole cell extracts of 2D10 cells, unstimulated or PMA for 1 h with or without U0126, FLAG peptide elution, Western blot.
The target in test [8] is FLAG-tagged CDK9 (293T cells) (human) (UniProt P50750). The experiment in a line: co-IP; anti-FLAG IP from 293T cells stably expressing FLAG-tagged CDK9, with or without transiently transfected HA-tagged Tat, with or without PMA for 1 hr or 2 hrs, Western blot.
The target in test [9] is T1, FLAG-CDK9 S175D (human, UniProt P50750 1-372, S175D).
T1 construct: also called S175D CDK9; Ser175Asp
The experiment in a line: co-IP; anti-FLAG M2 agarose IP of FLAG-CDK9 wildtype or mutants from whole cell extracts (lysis buffer A) of Jurkat 2D10 cells, FLAG peptide elution, Western blot; densitometry normalised to total immunoprecipitated CDK9, five experiments. The following applies: partners not purified.

Test [10] addresses T2, FLAG-CDK9 S175A (human, UniProt P50750 1-372, S175A).
T2 construct: also called S175A CDK9; Ser175Ala
Described as above. To be noted: partners not purified.

Test [11] deals with T3, FLAG-CDK9 T186A (human, UniProt P50750 1-372, T186A).
T3 construct: also called T186A CDK9
Described as above. To be noted: partners not purified.

For test [12], the target named is T4, FLAG-CDK9 T186D (human, UniProt P50750 1-372, T186D).
T4 construct: also called T186D CDK9
The test is described as above. The following applies: partners not purified.

With “CDK9 (FLAG-CDK9 isoform 1) (from UniProt P50750) T186D”, the percent of reference in test [1] (sites T186) turned out to be 61.6%; in test [2] (sites T186), 49.4%.

“HIV Tat H13L (from UniProt P04608 1-86) (natural protein)” yielded a percent of wildtype association in test [3] of 59.2%. For the same molecule, the percent of wildtype association in test [4] is 109%. In addition, in test [5], the CDK9 kinase activity of the affinity purified FLAG-CDK9 complex in the in vitro RNAP II CTD kinase assay, against wildtype CDK9 amounted to 159% and the CDK9 kinase activity of the affinity purified FLAG-CDK9 complex in the in vitro autophosphorylation assay, against wildtype CDK9 came out at 117%.

For the molecule “CDK9 (FLAG-CDK9 isoform 1) (from UniProt P50750) S175A”, the percent of reference in test [1] (sites S175) stood at 1.9%; in test [2] (sites S175), 98.9%; in test [6], 59.2%.

As to “endogenous CDK9 (from UniProt P50750 1-372) (enzyme)”, the percent reduction of association after PMA for 1 h in [7] worked out at 30%.

For the molecule “HA-tagged Tat (from UniProt P04608 1-86) (natural protein)”, in test [8], the percent increase of Tat associated with CDK9 after 1 hr of PMA amounted to 12%, the percent of HEXIM1 released from FLAG-CDK9 on expression of HA-Tat was determined as 71% and the percent of LARP7 released from FLAG-CDK9 on expression of HA-Tat came out at 82%.

Take “CDK9 (FLAG-CDK9 isoform 1) (from UniProt P50750) S175D”: the percent of reference in test [2] (sites S175) was found to be 78.9%.

B1: LARP7 (natural protein, human (endogenous in Jurkat), UniProt Q4G0J3 1-582, looked up)
chain: METESGNQEKVMEEESTEKKKEVEKKKRSRVKQVLADIAKQVDFWFGDANLHKDRFLREQIEKSRDGYVDISLLVSFNKMKKLTTDGKLIARALRSSAVVELDLEGTRIRRKKPLGERPKDEDERTVYVELLPKNVNHSWIERVFGKCGNVVYISIPHYKSTGDPKGFAFVEFETKEQAAKAIEFLNNPPEEAPRKPGIFPKTVKNKPIPALRVVEEKKKKKKKKGRMKKEDNIQAKEENMDTSNTSISKMKRSRPTSEGSDIESTEPQKQCSKKKKKRDRVEASSLPEVRTGKRKRSSSEDAESLAPRSKVKKIIQKDIIKEASEASKENRDIEISTEEEKDTGDLKDSSLLKTKRKHKKKHKERHKMGEEVIPLRVLSKSEWMDLKKEYLALQKASMASLKKTISQIKSESEMETDSGVPQNTGMKNEKTANREECRTQEKVNATGPQFVSGVIVKIISTEPLPGRKQVRDTLAAISEVLYVDLLEGDTECHARFKTPEDAQAVINAYTEINKKHCWKLEILSGDHEQRYWQKILVDRQAKLNQPREKKRGTEKLITKAEKIRLAKTQQASKHIRFSEYD
notes: source: endogenous, Jurkat T-cell whole cell extract
B1: the “percent co-immunoprecipitated against wildtype CDK9” value in [9] is 77.2%; in test [10] it was greater than 90%. The “percent reduction of co-precipitation against wildtype CDK9” value in test [11] and in test [12] was greater than 99% in each case.

B2: HEXIM1 (natural protein, human (endogenous in Jurkat), UniProt O94992 1-359, looked up)
chain: MAEPFLSEYQHQPQTSNCTGAAAVQEELNPERPPGAEERVPEEDSRWQSRAFPQLGGRPGPEGEGSLESQPPPLQTQACPESSCLREGEKGQNGDDSSAGGDFPPPAEVEPTPEAELLAQPCHDSEASKLGAPAAGGEEEWGQQQRQLGKKKHRRRPSKKKRHWKPYYKLTWEEKKKFDEKQSLRASRIRAEMFAKGQPVAPYNTTQFLMDDHDQEEPDLKTGLYSKRAAAKSDDTSDDDFMEEGGEEDGGSDGMGGDGSEFLQRDFSETYERYHTESLQNMSKQELIKEYLELEKCLSRMEDENNRLRLESKRLGGDDARVRELELELDRLRAENLQLLTENELHRQQERAPLSKFGD
notes: as for B1
Take B2: the “percent co-immunoprecipitated against wildtype CDK9” value in [9] was 67.5%; in test [10], greater than 90%. Besides, the “percent reduction of co-precipitation against wildtype CDK9” value in test [11] and in test [12] was greater than 99% throughout.
